B1: Keratin, type I cuticular Ha8 (Homo sapiens), O76015 (parent)
chain: MTSSYSSSSCPLGCTMAPGARNVSVSPIDIGCQPGAEANIAPMCLLANVAHANRVRVGSTPLGRPSLCLPPTCHTACPLPGTCHIPGNIGICGAYGENTLNGHEKETMQFLNDRLANYLEKVRQLEQENAELEATLLERSKCHESTVCPDYQSYFHTIEELQQKILCSKAENARLIVQIDNAKLAADDFRIKLESERSLRQLVEADKCGTQKLLDDATLAKADLEAQQESLKEEQLSLKSNHEQEVKILRSQLGEKLRIELDIEPTIDLNRVLGEMRAQYEAMLETNRQDVEQWFQAQSEGISLQDMSCSEELQCCQSEILELRCTVNALEVERQAQHTLKDCLQNSLCEAEDRFGTELAQMQSLISNVEEQLSEIRADLERQNQEYQVLLDVKTRLENEIATYRNLLESEDCKLPCNPCSTSPSCVTAPCAPRPSCGPCTTCGPTCGASTTGSRF

Variants of: B1
Conditions: with k22e_human KRT2, P35908
Chain of k22e_human KRT2, P35908 (P35908 whole entry): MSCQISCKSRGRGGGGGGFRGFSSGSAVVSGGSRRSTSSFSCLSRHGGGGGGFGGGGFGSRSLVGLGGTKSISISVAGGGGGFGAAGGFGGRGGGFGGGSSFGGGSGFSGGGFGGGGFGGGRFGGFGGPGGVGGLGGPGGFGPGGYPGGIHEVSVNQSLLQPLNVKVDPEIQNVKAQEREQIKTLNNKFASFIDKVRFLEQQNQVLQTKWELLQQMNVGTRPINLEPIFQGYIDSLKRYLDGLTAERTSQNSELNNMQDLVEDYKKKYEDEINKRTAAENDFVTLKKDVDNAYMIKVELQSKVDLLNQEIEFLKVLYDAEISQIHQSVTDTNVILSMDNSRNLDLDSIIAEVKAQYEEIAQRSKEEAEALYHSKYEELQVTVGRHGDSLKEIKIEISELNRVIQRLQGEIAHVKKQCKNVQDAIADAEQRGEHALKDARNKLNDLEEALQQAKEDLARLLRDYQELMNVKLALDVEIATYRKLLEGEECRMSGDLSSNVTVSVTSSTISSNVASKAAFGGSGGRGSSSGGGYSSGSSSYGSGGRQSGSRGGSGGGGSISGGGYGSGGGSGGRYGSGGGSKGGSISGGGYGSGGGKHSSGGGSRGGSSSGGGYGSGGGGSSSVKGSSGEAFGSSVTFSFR

| effect of a mutation on the interaction | Variant |
| --- | --- |
| with no effect | N270K |

Variants of: B1
Conditions: with txnd5_human TXNDC5, Q8NBS9
Chain of txnd5_human TXNDC5, Q8NBS9 (Q8NBS9 whole entry): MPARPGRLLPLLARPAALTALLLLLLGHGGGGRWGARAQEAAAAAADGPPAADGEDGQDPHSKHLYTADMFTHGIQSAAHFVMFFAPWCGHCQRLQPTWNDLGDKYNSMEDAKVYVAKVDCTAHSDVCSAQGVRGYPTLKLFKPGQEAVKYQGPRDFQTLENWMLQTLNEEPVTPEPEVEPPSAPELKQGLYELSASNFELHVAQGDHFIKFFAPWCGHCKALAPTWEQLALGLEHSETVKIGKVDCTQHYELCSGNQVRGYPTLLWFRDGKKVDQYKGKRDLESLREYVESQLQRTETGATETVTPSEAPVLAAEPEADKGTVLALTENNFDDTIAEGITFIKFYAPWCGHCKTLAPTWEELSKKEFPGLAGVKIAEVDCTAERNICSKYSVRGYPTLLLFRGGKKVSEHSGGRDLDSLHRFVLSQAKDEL

| effect of a mutation on the interaction | Variant |
| --- | --- |
| with no effect | N270K |

Variants of: B1
Conditions: with prs8_human PSMC5, P62195
Chain of prs8_human PSMC5, P62195 (P62195 whole entry): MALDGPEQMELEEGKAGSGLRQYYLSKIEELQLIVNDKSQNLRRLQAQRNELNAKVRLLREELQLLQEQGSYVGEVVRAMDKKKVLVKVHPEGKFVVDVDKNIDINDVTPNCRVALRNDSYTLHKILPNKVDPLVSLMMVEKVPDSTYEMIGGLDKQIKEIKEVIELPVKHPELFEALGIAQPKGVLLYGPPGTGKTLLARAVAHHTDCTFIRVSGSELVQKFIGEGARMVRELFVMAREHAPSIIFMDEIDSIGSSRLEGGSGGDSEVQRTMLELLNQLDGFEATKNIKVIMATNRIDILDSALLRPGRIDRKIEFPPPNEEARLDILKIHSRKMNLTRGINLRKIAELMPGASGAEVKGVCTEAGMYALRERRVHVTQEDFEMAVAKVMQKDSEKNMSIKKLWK

| effect of a mutation on the interaction | Variant |
| --- | --- |
| with no effect | N270K |

Variants of: B1
Conditions: with p85b_human PIK3R2, O00459
Chain of p85b_human PIK3R2, O00459 (O00459 whole entry): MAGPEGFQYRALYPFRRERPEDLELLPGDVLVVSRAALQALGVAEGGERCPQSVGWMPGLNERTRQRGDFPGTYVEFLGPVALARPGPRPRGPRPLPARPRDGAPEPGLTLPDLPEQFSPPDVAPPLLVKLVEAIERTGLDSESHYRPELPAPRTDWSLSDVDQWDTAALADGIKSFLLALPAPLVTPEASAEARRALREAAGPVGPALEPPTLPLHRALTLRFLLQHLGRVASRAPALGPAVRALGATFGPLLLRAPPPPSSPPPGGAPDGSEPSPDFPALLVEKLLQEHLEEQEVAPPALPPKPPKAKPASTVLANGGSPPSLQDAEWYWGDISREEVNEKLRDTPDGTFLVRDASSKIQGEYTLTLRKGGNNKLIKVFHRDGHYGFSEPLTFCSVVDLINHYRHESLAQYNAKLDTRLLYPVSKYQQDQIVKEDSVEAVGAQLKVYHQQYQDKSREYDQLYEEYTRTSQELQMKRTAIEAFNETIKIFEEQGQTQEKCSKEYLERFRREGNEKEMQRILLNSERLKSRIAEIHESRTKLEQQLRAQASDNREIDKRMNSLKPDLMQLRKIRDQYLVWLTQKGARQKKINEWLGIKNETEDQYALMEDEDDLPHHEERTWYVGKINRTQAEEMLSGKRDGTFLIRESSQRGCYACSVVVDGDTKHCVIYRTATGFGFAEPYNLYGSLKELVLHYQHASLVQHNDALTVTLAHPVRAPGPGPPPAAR

| effect of a mutation on the interaction | Variant |
| --- | --- |
| with no effect | N270K |

Variants of: B1
Conditions: with KRT6A

| effect of a mutation on the interaction | Variant |
| --- | --- |
| with no effect | N270K |

Variants of: B1
Conditions: with k2c4_human KRT4, P19013
Chain of k2c4_human KRT4, P19013 (P19013 whole entry): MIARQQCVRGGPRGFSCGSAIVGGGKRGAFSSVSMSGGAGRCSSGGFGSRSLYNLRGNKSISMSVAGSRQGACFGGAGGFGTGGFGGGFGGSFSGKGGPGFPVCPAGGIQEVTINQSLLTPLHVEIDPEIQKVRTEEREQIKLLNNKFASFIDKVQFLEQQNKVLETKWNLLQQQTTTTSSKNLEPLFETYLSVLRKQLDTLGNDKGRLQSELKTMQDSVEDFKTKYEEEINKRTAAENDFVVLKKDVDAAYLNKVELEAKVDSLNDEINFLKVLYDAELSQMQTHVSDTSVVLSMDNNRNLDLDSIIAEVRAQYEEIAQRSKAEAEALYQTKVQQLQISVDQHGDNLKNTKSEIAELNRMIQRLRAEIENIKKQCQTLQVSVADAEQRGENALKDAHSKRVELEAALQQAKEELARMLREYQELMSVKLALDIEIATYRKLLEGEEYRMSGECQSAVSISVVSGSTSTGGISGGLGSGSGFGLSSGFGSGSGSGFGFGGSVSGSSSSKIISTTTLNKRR

| effect of a mutation on the interaction | Variant |
| --- | --- |
| with no effect | N270K |

Variants of: B1
Conditions: with txlnb_human TXLNB

| effect of a mutation on the interaction | Variant |
| --- | --- |
| with no effect | N270K |

Variants of: B1
Conditions: with KRT79, Q5XKE5
Chain of KRT79, Q5XKE5 (Q5XKE5 whole entry): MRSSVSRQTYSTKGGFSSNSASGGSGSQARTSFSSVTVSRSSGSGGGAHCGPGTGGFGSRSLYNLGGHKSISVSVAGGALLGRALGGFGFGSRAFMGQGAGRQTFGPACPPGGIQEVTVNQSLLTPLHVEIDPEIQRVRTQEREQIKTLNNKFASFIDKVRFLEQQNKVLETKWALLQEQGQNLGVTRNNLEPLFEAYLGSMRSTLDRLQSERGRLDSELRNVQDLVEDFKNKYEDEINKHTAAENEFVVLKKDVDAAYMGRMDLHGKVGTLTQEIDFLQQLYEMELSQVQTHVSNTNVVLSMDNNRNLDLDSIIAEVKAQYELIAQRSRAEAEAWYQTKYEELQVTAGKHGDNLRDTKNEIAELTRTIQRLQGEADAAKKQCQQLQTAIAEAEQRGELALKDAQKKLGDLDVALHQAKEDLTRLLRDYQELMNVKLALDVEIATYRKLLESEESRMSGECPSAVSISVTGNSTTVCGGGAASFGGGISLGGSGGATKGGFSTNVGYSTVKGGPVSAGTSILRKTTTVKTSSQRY

| effect of a mutation on the interaction | Variant |
| --- | --- |
| with no effect | N270K |

Variants of: B1
Conditions: with txlna_human TXLNA

| effect of a mutation on the interaction | Variant |
| --- | --- |
| with no effect | N270K |

Variants of: B1
Conditions: with k22e_human KRT2, P35908
Remark: another data set of the same source

| effect of a mutation on the interaction | Variant |
| --- | --- |
| with no effect | D306A |

Variants of: B1
Conditions: with txnd5_human TXNDC5, Q8NBS9
Remark: another data set of the same source

| effect of a mutation on the interaction | Variant |
| --- | --- |
| with no effect | D306A |

Variants of: B1
Conditions: with prs8_human PSMC5, P62195
Remark: another data set of the same source

| effect of a mutation on the interaction | Variant |
| --- | --- |
| with no effect | D306A |

Variants of: B1
Conditions: with p85b_human PIK3R2, O00459
Remark: another data set of the same source

| effect of a mutation on the interaction | Variant |
| --- | --- |
| with no effect | D306A |

Variants of: B1
Conditions: with KRT6A
Remark: another data set of the same source

| effect of a mutation on the interaction | Variant |
| --- | --- |
| with no effect | D306A |

Variants of: B1
Conditions: with k2c4_human KRT4, P19013
Remark: another data set of the same source

| effect of a mutation on the interaction | Variant |
| --- | --- |
| with no effect | D306A |

Variants of: B1
Conditions: with txlnb_human TXLNB
Remark: another data set of the same source

| effect of a mutation on the interaction | Variant |
| --- | --- |
| with no effect | D306A |

Variants of: B1
Conditions: with KRT79, Q5XKE5
Remark: another data set of the same source

| effect of a mutation on the interaction | Variant |
| --- | --- |
| with no effect | D306A |

Variants of: B1
Conditions: with txlna_human TXLNA
Remark: another data set of the same source

| effect of a mutation on the interaction | Variant |
| --- | --- |
| with no effect | D306A |
